Laboratory results: patent publication US10538591B2, “Anti-fibulin-3 antibodies and uses thereof” (THE BRIGHAM AND WOMEN'S HOSPITAL, INC., priority 2014, dated 2020)

T1: purified human fibulin-3 (Homo sapiens, UniProt Q12805)
T1 construct: purchased ORIGENE
T1 sequence (Q12805 18-493): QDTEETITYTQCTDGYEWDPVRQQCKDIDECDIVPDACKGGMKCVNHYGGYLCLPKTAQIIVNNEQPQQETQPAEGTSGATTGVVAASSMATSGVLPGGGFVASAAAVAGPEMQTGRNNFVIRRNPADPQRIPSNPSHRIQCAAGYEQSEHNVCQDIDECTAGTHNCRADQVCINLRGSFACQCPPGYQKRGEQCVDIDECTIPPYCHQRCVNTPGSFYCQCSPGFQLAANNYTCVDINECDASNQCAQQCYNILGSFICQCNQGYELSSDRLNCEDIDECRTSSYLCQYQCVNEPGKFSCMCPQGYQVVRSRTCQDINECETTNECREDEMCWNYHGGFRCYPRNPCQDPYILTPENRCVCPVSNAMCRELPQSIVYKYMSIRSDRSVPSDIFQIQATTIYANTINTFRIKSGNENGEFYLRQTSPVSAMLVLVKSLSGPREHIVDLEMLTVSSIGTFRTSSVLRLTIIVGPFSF

B1: scFv428.2: single-chain variable fragment derived from mAb428.2, VL-(G4S)3-VH with Myc and 6xHis tags; SEQ ID NOS: 25, 26 (protein)
scFv: DDIKMTQSPSSMYASLGERVTITCKASQDIKSYLSWHQQKPWKSPKTLIYYATSLADGVPSRFSGSGSGQDYSLTISSLESDDTATYYCLQHGKSPYTFGGGTKLEIKGGGGSGGGGSGGGGSQIQLVQSGPELKKPGETVKISCKASGYSFTTYGMSWVKQAPGKGLKWMGWINTYSGVPTYADDFKGRFAFFLETSASTAYLQINNLKNEDTATYFCARWVDYWGQGTTLTVSSEQKLISEEDLNMHTGHHHHHH
B2: chimeric mouse/human mAb428.2: recombinant chimeric antibody with VL and VH of mAb428.2; light chain SEQ ID NO: 23, heavy chain SEQ ID NO: 24 (antibody)
heavy: MYRMQLLSCIALSLALVTNSEVQLVEQIQLVQSGPELKKPGETVKISCKASGYSFTTYGMSWVKQAPGKGLKWMGWINTHSGVPTYADDFKGRFAFFLETSASTAYLQINNLKNEDTATYFCARWVDYWGQGTTLTVSSGTLVTVSSASTKGPSVFPLAPSSKSTSGGTAALGCLVKDYFPEPVTVSWNSGALTSGVHTFPAVLQSSGLYSLSSVVTVPSSSLGTQTYICNVNHKPSNTKVDKKVEPKSCDKTHTCPPCPAPELLGGPSVFIFPPKPKDVLTITLTPKVTCVVVDISKDDPEVQFSWFVDDVEVHTAQTQPREEQFNSTFRSVSELPIMHQDWLNGKEFKCRVNSAAFPAPIEKTISKTKGRPKAPQVYTIPPPKEQMAKDKVSLTCMITDFFPEDITVEWQWNGQPAENYKNTQPIMDTDGSYFVYSKLNVQKSNWEAGNTFTCSVLHEGLHNHHTEKSLSHSPGK
light: MQLLSCIALSLALVTNSDIQMTQSPSSLSASVGDRVTITCRASQSVSSADIKMTQSPSSMYASLGERVTITCKASQDIKSYLSWHQQKPWKSPKTLIYYATSLADGVPSRFSGSGSGQDYSLTISSLESDDTATYYCLQHGKSPYTFGGGTKLEIKGTKVEIKRTVAAPSVFIFPPSDSQLKSGTASVVCLLNNFYPREAKVQWKVDNALQSGNSQESVTEQDSKDSTYSLSSTLTLSKADYEKHKVYACEVTHQGLSSPVTKSFNRGEC

Tests used:
U251MG glioma cells = assay: Temozolomide combination viability assay in U251MG cells; format: cell-based, human; conditions: increasing concentrations, 72 h
Experimental: The antibody increased the cytotoxicity of TMZ by 30% in average.
Antibodies against fibulin-3 can potentiate the effect of a chemotherapeutic drug. Glioma cells (U251MG cell line) were cultured in presence of increasing doses of temozolomide, which is the standard-of-care drug for treatment of malignant glioma. The drug was combined with antibody vehicle (PBS) or with a fixed dose of anti-Fib3/911 antibody. Viability of the cells was analyzed after 72 h, which is a time period at which temozolomide has only a modest effect on glioma cells.

purified human fibulin-3 = molecular target: T1, purified human fibulin-3; assay: Western blot and dot-blot detection of fibulin-3; format: binding; conditions: for detection of fibulin-3 by Western blotting: SDS-PAGE, reducing and/or non-reducing conditions
Experimental: CNSI glioma cells were transfected with fibulin-3 cDNA (fib3-OE cells) or a control plasmid (control cells) and cultured for 24 h in serum-free conditions. Conditioned medium was collected and probed by Western blotting with anti-Fib3/911 (911), anti-Fib3/912 (912), or their respective preimmune sera (antibodies and sera were used at 1/5000 dilution).
Two rabbit polyclonal antibodies were commissioned against the 23-amino acid peptide sequence of fibulin-3 involved in Notch activation. The peptide was minimally modified to facilitate the formation of a disulfide bridge necessary to form a conformational, tri-dimensional epitope (FIG. 4). Antibodies against fibulin-3 (“anti-Fib3/911” and “anti-Fib3/912”) were purified by affinity chromatography, aliquoted, and prepared in phosphate-buffered saline (PBS) solution for all subsequent tests.
Purified human fibulin-3 (200 ng/lane, ORIGENE) was subjected to SDS-PAGE in reducing and non-reducing conditions and probed with affinity-purified mAb428.3C11 (0.4 to 20 μg/ml, diluted in PBS from a 2 mg/ml stock).
Concentrated, serum-free culture medium from HEK293 cells (1 mg/ml total protein) was probed with anti-human IgG secondary antibody (HRP conjugate) to detect the chains of antibody in reducing and non-reducing conditions. C) Concentrated medium from HEK293 cells (1 mg/ml total protein) was directly used to probe purified human fibulin-3 (resolved by SDS-PAGE in non-reducing conditions).

Experimental for U251 glioblastoma cells: In FIG. 27C, U251 glioblastoma cells (5,000 cells/well) were incubated in conditioned medium from control-HEK293 or scFv-expressing HEK293 (1.5 mg/ml total protein). After 48 h cell viability was measured using the CellTiter-Glo kit to measure ATP production (PROMEGA cat #G7572).

Molecule | cytotoxic effect of TMZ alone (U251MG glioma cells) | detection of fibulin-3 by Western blotting (purified human fibulin-3) | detection of native fibulin-3 by dot-blotting (purified human fibulin-3; non-reduced fibulin-3 on nitrocellulose, scFv428.2 medium 1 mg/ml, mAb428.2 1 μg/ml) | cytotoxicity of culture media with scFv (U251 glioblastoma cells)
Cn1nnc2c(C(N)=O)ncn2c1=O [TMZ, temozolomide] | modest, dose-dependent cytoxic effect | – | – | –
B1 | – | can detect denatured fibulin in reducing and non-reducing conditions | able to detect native fibulin-3 by dot-blotting | induce cytotoxicity in glioblastoma cells
B2 | – | detects the same pattern of bands as purified mouse mAb428.2 | – | –
